{
  "source": "patent WO2017204277A1",
  "molecular_target": "mature h(m)TGF-beta3 (mature form of human (mouse) TGF-beta3) (human (mouse); the filing says the mature forms are identical)",
  "test": "cell-based or functional assay",
  "data": [
    {"substance": "GC1008-hIgG1 (antibody)", "values": [
      {"measurement": "suppression of TGF-beta3 physiological activity (Smad signal), SEAP activity of HEK-Blue TGFb cells, OD620nm", "value": 100, "unit": "%"}
    ]}
  ]
}
